The values that follow come from US20070048268A1 (ZymoGenetics, published 2007).

For the test, the target named is biotinylated murine IL-21 (murine, UniProt Q9ES17 18-146). In words: flow cytometry on MOLT-13, HuT-78, HuT-102, DEL and YT cells, 40 ng/ml to 1000 ng/ml, Streptavidin-PE. Background: Flow cytometry measures light scatter and fluorescence of single cells or particles in a stream.

Protocol: Cells were analyzed on a FACSScan using CellQuest software (Becton Dickinson, Mountain View, Calif.).

B1: human IL-21 receptor (receptor)
chain: not shown
notes: also called zalpha11 receptor; zalpha11
As for B1, the binding result is reported as “binds”.
